Drawing on paper PMC10786891, “Massively parallel profiling of RNA-targeting CRISPR-Cas13d”, this text covers Kd for 27 molecules.

First the molecules themselves.
T1: EsCas13d, nuclease-dead (Eubacterium siraeum, UniProt B0MS50, R295A;H300A;R849A;H854A)
T1 sequence: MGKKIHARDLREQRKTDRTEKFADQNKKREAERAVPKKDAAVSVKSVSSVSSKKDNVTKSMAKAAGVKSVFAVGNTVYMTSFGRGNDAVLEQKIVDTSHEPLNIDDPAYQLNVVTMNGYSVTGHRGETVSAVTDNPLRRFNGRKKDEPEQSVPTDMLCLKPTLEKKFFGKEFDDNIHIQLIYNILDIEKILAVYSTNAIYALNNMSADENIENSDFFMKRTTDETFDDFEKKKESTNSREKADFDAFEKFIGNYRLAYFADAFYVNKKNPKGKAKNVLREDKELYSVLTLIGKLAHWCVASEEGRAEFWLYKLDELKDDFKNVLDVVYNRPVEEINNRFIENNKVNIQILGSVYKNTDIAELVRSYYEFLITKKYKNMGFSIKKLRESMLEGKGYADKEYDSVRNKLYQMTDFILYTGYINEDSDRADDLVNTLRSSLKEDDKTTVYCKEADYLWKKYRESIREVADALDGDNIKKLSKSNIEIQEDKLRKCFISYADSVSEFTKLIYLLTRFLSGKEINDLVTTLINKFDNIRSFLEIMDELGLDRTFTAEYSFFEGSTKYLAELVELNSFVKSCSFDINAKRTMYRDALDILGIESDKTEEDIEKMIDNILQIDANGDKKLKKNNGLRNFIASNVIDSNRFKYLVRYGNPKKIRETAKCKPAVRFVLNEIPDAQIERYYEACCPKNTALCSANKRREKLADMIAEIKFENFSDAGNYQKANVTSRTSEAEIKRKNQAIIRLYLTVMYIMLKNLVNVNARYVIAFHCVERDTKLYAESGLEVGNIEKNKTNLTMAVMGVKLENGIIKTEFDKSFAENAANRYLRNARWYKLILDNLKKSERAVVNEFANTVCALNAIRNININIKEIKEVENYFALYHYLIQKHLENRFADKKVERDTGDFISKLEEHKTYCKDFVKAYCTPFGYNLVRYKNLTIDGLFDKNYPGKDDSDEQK

B1: target 1 G12A,A18U (mixed)
RNA 1: CACCCGUGCAAAAAUGCAGGGGUCUAAAACUGAGCGGAUAACCUCUCUAUGG
RNA 2: GGGAAUGGAUCCACAUCUACGAAUUCGUACCAUUGAGAGAUUAUCCGCUCACCGAGAUCGGAAGAGCACACGU
B2: target 1 insA 3' of 17,insG 3' of 3 (mixed)
RNA 1: CACCCGUGCAAAAAUGCAGGGGUCUAAAACUGAGCGGAUAACCUCUCUAUGG
RNA 2: GGGAAUGGAUCCACAUCUACGAAUUCGUACCAUAGAAGAGGUUAUCCGCUGCACCGAGAUCGGAAGAGCACACGU
B3: target 1 insC 3' of 12,insU 3' of 4 (mixed)
RNA 1: CACCCGUGCAAAAAUGCAGGGGUCUAAAACUGAGCGGAUAACCUCUCUAUGG
RNA 2: GGGAAUGGAUCCACAUCUACGAAUUCGUACCAUAGAGAGGCUUAUCCGCUUCACCGAGAUCGGAAGAGCACACGU
B4: target 3 G4U,C6G (mixed)
RNA 1: CACCCGUGCAAAAUUGCAGGGGUCUAAAACGACCUGAAUAUUUCAGAUCAAA
RNA 2: GGGAAUGGAUCCACAUCUACGAAUUCGUUUUUGAUCUGAAAUAUUGAUGUCUGCAGAUCGGAAGAGCACACGU
B5: target 3 U2G,U7G (mixed)
RNA 1: CACCCGUGCAAAAUUGCAGGGGUCUAAAACGACCUGAAUAUUUCAGAUCAAA
RNA 2: GGGAAUGGAUCCACAUCUACGAAUUCGUUUUUGAUCUGAAAUAUGCAGGGCUGCAGAUCGGAAGAGCACACGU
B6: target 3 insA 3' of 22 (mixed)
RNA 1: CACCCGUGCAAAAUUGCAGGGGUCUAAAACGACCUGAAUAUUUCAGAUCAAA
RNA 2: GGGAAUGGAUCCACAUCUACGAAUUCGUUUAUUGAUCUGAAAUAUUCAGGUCUGCAGAUCGGAAGAGCACACGU
B7: target 3 insA 3' of 4,insU 3' of 4 (mixed)
RNA 1: CACCCGUGCAAAAUUGCAGGGGUCUAAAACGACCUGAAUAUUUCAGAUCAAA
RNA 2: GGGAAUGGAUCCACAUCUACGAAUUCGUUUUUGAUCUGAAAUAUUCAGAUGUCUGCAGAUCGGAAGAGCACACGU
B8: target 3 insC 3' of 21,insG 3' of 5 (mixed)
RNA 1: CACCCGUGCAAAAUUGCAGGGGUCUAAAACGACCUGAAUAUUUCAGAUCAAA
RNA 2: GGGAAUGGAUCCACAUCUACGAAUUCGUUUUCUGAUCUGAAAUAUUCAGGGUCUGCAGAUCGGAAGAGCACACGU
B9: target 3 G3C,A5U (mixed)
RNA 1: CACCCGUGCAAAAUUGCAGGGGUCUAAAACGACCUGAAUAUUUCAGAUCAAA
RNA 2: GGGAAUGGAUCCACAUCUACGAAUUCGUUUUUGAUCUGAAAUAUUCUGCUCUGCAGAUCGGAAGAGCACACGU
B10: target 3 G3C,U21A (mixed)
RNA 1: CACCCGUGCAAAAUUGCAGGGGUCUAAAACGACCUGAAUAUUUCAGAUCAAA
RNA 2: GGGAAUGGAUCCACAUCUACGAAUUCGUUUAUGAUCUGAAAUAUUCAGCUCUGCAGAUCGGAAGAGCACACGU
B11: target 3 C1A,A18G (mixed)
RNA 1: CACCCGUGCAAAAUUGCAGGGGUCUAAAACGACCUGAAUAUUUCAGAUCAAA
RNA 2: GGGAAUGGAUCCACAUCUACGAAUUCGUUUUUGGUCUGAAAUAUUCAGGUAUGCAGAUCGGAAGAGCACACGU
B12: target 3 C1G,A18G (mixed)
RNA 1: CACCCGUGCAAAAUUGCAGGGGUCUAAAACGACCUGAAUAUUUCAGAUCAAA
RNA 2: GGGAAUGGAUCCACAUCUACGAAUUCGUUUUUGGUCUGAAAUAUUCAGGUGUGCAGAUCGGAAGAGCACACGU
B13: target 3 insG 3' of 7,insU 3' of 6 (mixed)
RNA 1: CACCCGUGCAAAAUUGCAGGGGUCUAAAACGACCUGAAUAUUUCAGAUCAAA
RNA 2: GGGAAUGGAUCCACAUCUACGAAUUCGUUUUUGAUCUGAAAUAUUGCUAGGUCUGCAGAUCGGAAGAGCACACGU
B14: target 3 insC 3' of 13,insG 3' of 2 (mixed)
RNA 1: CACCCGUGCAAAAUUGCAGGGGUCUAAAACGACCUGAAUAUUUCAGAUCAAA
RNA 2: GGGAAUGGAUCCACAUCUACGAAUUCGUUUUUGAUCUGACAAUAUUCAGGUGCUGCAGAUCGGAAGAGCACACGU
B15: target 3 A9G,U22A (mixed)
RNA 1: CACCCGUGCAAAAUUGCAGGGGUCUAAAACGACCUGAAUAUUUCAGAUCAAA
RNA 2: GGGAAUGGAUCCACAUCUACGAAUUCGUUAUUGAUCUGAAAUGUUCAGGUCUGCAGAUCGGAAGAGCACACGU
B16: target 3 insA 3' of 20,insC 3' of 20 (mixed)
RNA 1: CACCCGUGCAAAAUUGCAGGGGUCUAAAACGACCUGAAUAUUUCAGAUCAAA
RNA 2: GGGAAUGGAUCCACAUCUACGAAUUCGUUUUUACGAUCUGAAAUAUUCAGGUCUGCAGAUCGGAAGAGCACACGU
B17: target 3 insA 3' of 6,insU 3' of 3 (mixed)
RNA 1: CACCCGUGCAAAAUUGCAGGGGUCUAAAACGACCUGAAUAUUUCAGAUCAAA
RNA 2: GGGAAUGGAUCCACAUCUACGAAUUCGUUUUUGAUCUGAAAUAUUCAAGGUUCUGCAGAUCGGAAGAGCACACGU
B18: target 3 C1A (mixed)
RNA 1: CACCCGUGCAAAAUUGCAGGGGUCUAAAACGACCUGAAUAUUUCAGAUCAAA
RNA 2: GGGAAUGGAUCCACAUCUACGAAUUCGUUUUUGAUCUGAAAUAUUCAGGUAUGCAGAUCGGAAGAGCACACGU
B19: target 3 insC 3' of 5,insA 3' of 1 (mixed)
RNA 1: CACCCGUGCAAAAUUGCAGGGGUCUAAAACGACCUGAAUAUUUCAGAUCAAA
RNA 2: GGGAAUGGAUCCACAUCUACGAAUUCGUUUUUGAUCUGAAAUAUUCACGGUCAUGCAGAUCGGAAGAGCACACGU
B20: target 3 C1U,G3C (mixed)
RNA 1: CACCCGUGCAAAAUUGCAGGGGUCUAAAACGACCUGAAUAUUUCAGAUCAAA
RNA 2: GGGAAUGGAUCCACAUCUACGAAUUCGUUUUUGAUCUGAAAUAUUCAGCUUUGCAGAUCGGAAGAGCACACGU
B21: target 3 C1G,U10A (mixed)
RNA 1: CACCCGUGCAAAAUUGCAGGGGUCUAAAACGACCUGAAUAUUUCAGAUCAAA
RNA 2: GGGAAUGGAUCCACAUCUACGAAUUCGUUUUUGAUCUGAAAAAUUCAGGUGUGCAGAUCGGAAGAGCACACGU
B22: target 3 insU 3' of 9,insG 3' of 9 (mixed)
RNA 1: CACCCGUGCAAAAUUGCAGGGGUCUAAAACGACCUGAAUAUUUCAGAUCAAA
RNA 2: GGGAAUGGAUCCACAUCUACGAAUUCGUUUUUGAUCUGAAAUAUGUUCAGGUCUGCAGAUCGGAAGAGCACACGU
B23: target 3 insU 3' of 18,insC 3' of 11 (mixed)
RNA 1: CACCCGUGCAAAAUUGCAGGGGUCUAAAACGACCUGAAUAUUUCAGAUCAAA
RNA 2: GGGAAUGGAUCCACAUCUACGAAUUCGUUUUUGAUUCUGAAACUAUUCAGGUCUGCAGAUCGGAAGAGCACACGU
B24: target 3 A18G (mixed)
RNA 1: CACCCGUGCAAAAUUGCAGGGGUCUAAAACGACCUGAAUAUUUCAGAUCAAA
RNA 2: GGGAAUGGAUCCACAUCUACGAAUUCGUUUUUGGUCUGAAAUAUUCAGGUCUGCAGAUCGGAAGAGCACACGU
B25: target 3 insU 3' of 11,insA 3' of 2 (mixed)
RNA 1: CACCCGUGCAAAAUUGCAGGGGUCUAAAACGACCUGAAUAUUUCAGAUCAAA
RNA 2: GGGAAUGGAUCCACAUCUACGAAUUCGUUUUUGAUCUGAAAUUAUUCAGGUACUGCAGAUCGGAAGAGCACACGU
B26: target 3 insC 3' of 7,insU 3' of 5 (mixed)
RNA 1: CACCCGUGCAAAAUUGCAGGGGUCUAAAACGACCUGAAUAUUUCAGAUCAAA
RNA 2: GGGAAUGGAUCCACAUCUACGAAUUCGUUUUUGAUCUGAAAUAUUCCAUGGUCUGCAGAUCGGAAGAGCACACGU
B27: target 3 C6G,U7G (mixed)
RNA 1: CACCCGUGCAAAAUUGCAGGGGUCUAAAACGACCUGAAUAUUUCAGAUCAAA
RNA 2: GGGAAUGGAUCCACAUCUACGAAUUCGUUUUUGAUCUGAAAUAUGGAGGUCUGCAGAUCGGAAGAGCACACGU

This series has as its target T1, EsCas13d, nuclease-dead. The series can be described thus: crRNA (strand 1, pre-loaded); Mg2+; 40 mM Tris-HCl pH 7.5, 150 mM NaCl, 6 mM MgCl2, 1 mM DTT, 0.1% Tween-20, 0.2 mg/ml BSA; 25 C; 10 min per concentration, then washed. The conditions noted are these: tags: His6-TwinStrep-SUMO cleaved; N-terminal SNAP kept (SNAP-Surface 488); label: 3' end held by stalled T7 RNA polymerase.
The Kd is the concentration at which binding is half-saturated. Higher therefore signals weaker binding. Regarding B1, the dissociation constant (Kd) stood at 25.2 ± 2.7 nM.
As for B2, the Kd is 10.9 ± 0.6 nM.
In turn, B3 returned a Kd of 7.5 ± 0.8 nM.
As to B4, binding was put at a Kd of 68.5 ± 15 nM.
For B5, the affinity, expressed as Kd, was 20.9 ± 2.45 nM.
As to B6, binding was characterised by a dissociation constant (Kd) of 20.6 ± 3.4 nM.
Consider B7, for which the affinity, expressed as Kd, was 44 ± 16 nM.
Molecule B8 came in with a Kd of 81 ± 15.5 nM.
Turning to B9, the affinity, expressed as Kd, was 25 ± 2.6 nM. This Kd lies about 3.2-fold lower than the previous one.
Next, B10: 72.5 ± 13.5 nM; B11: 48.5 ± 14 nM.
Under B12 stands 18.6 ± 2.6 nM; under B13, 20.1 ± 1.9 nM.
The molecule B14 displayed a dissociation constant Kd of 50 ± 11 nM. Against the preceding molecule, the Kd is about 2.5-fold higher.
B15: the Kd amounted to 27.6 ± 3.15 nM.
As to B16, the Kd is approximately 110 nM.
The molecule B17 had a Kd of 5.25 ± 0.5 nM.
Regarding B18, the Kd came to 20 ± 2.55 nM.
B19 had a Kd of 23.1 ± 4.05 nM.
Consider B20, for which binding was put at a Kd of 49.5 ± 15.5 nM.
In turn, B21 had a Kd of 43 ± 14 nM.
Molecule B22 yielded a Kd of 89.5 ± 24.5 nM.
Next, B23: 49 ± 9 nM.
Next, B24: 19.1 ± 1.7 nM.
In turn, B25 gave a dissociation constant (Kd) of 56.5 ± 8.5 nM.
Under B26 stands 57 ± 7.5 nM; under B27, 46.5 ± 4.5 nM.
